Source: US6812017B2, “Mammalian secreted group IIF phospholipase A2” (Centre National de la Recherche Scientique - CNRS, priority 2000, dated 2004)
Values belong to the molecule of their own block, whether it stands above or below them.

Tests used:
[1] = Ca2+-dependence of the hydrolysis of phosphatidylcholine vesicles; assay type: biochemical
Method: (§1) FIGS. 4A-4C represent the enzymatic properties of recombinant hGIIF sPLA2. […] Full experimental details are provided in materials and methods.
(§2) The Ca^2+ and pH dependencies of hGIIF sPLA2 were measured with POPC vesicles containing 1-palmitoyl-2-[1-^3H]palmitoyl-sn-glycero-3-phospho9choline vesicles and POPG vesicles containing 1-palmitoyl-2-[1-^3H]palmitoyl-sn-glycero-3-phosphoglyceril, respectively. Substrate specificity studies were carried out using a slightly modified assay with the fatty acid binding protein [7]. Reaction mixtures contained 30 μM POPC, POPG, or POPS (1-Palmitoyl-2-Oleoyl-sn-Glcero-3-phosphoserine) large […] vesicles (0.1 μm, prepared by extrusion as described [222[) in Hanks' balanced salt solution with 1 mM Ca^2+, 1 mM Mg^2+, 9.7 μg fatty acid binding protein, and 1 μm 11-dansyl-undecanoic acid at 37° C. Assays were calibrated by adding a known amount of oleic acid to the complete assay in the absence of enzyme.

[2] = pH-dependence of the hydrolysis of phosphatidylglycerol vesicles; assay type: biochemical
Method: as §1, §2

[3] = Substrate specificity, fatty acid binding protein assay on phospholipid vesicles; assay type: biochemical; settings: 30 μM vesicles, 1 mM Ca2+, 37° C.
Method: as §1, §2

[4] = from references [8], [16]; cited from earlier work

rate of POPC hydrolysis relative to rate of POPG [3]: ~6% | relative rates for the hydrolysis of POPG, POPS, and POPC vesicles [3]: highest with anionic POPG vesicles
B1: hGIIF sPLA2: novel human secreted group IIF phospholipase A2, recombinantly expressed in E. coli; 168 amino acid sequence, mature protein 148 residues (protein)
chain: MKKFFTVAILAGSVLSTAHGSLLNLKAMVEAVTGRSAILSFVGYGCYCGLGGRGQPKDEVDWCCHAHDCCYQELFDQGCHPYVDHYDHTIENNTEIVCSDLNKTECDKQTCMCDKNMVLCLMNQTYREEYRGFLNVYCQGPTPNCSIYEPPPEEVTCSHQSPAPPAPP
apparent KCa2+ ([1]; PC vesicles as substrate, hyperbolic dependence on Ca2+ concentration): 140 ± 40 µM | Ca2+ dependence of hydrolysis of phospholipid vesicles ([1]; phospholipid vesicles): strictly Ca^2+ dependent | rate of hydrolysis of phosphatidylglycerol vesicles versus pH [2]: increases with pH in the range 5-7

B2: hGIIA sPLA2: human group IIA secreted phospholipase A2 (protein)
chain: MKTLLLLAVIMIFGLLQAHGNLVNFHRMIKLTTGKEAALSYGFYGCHCGVGGRGSPKDATDRCCVTHDCCYKRLEKRGCGTKFLSYKFSNSGSRITCAKQDSCRSQLCECDKAAATCFARNKTTYNKKYQYYSNKHCRGSTPRC
preference for POPG versus POPC vesicles [4]: greater than 10^5 fold

B3: hGV: human group V secreted phospholipase A2 (protein)
chain: MKGLLPLAWFLACSVPAVQGGLLDLKSMIEKVTGKNALTNYGFYGCYCGWGGRGTPKDGTDWCCWAHDHCYGRLEEKGCNIRTQSYKYRFAWGVVTCEPGPFCHVNLCACDRKLVYCLKRNLRSYNPQYQYFPNILCS
preference for POPG versus POPC vesicles [4]: 3 fold

B4: hGX: human group X secreted phospholipase A2 (protein)
chain: MLLLLLPSLLLLLLLPGPGSGEASRILRVHRRGILELAGTVGCVGPRTPIAYMKYGCFCGLGGHGQPRDAIDWCCHGHDCCYTRAEEAGCSPKTERYSWQCVNQSVLCGPAENKCQELLCKCDQEIANCLAQTEYNLKYLFYPQFLCEPDSPKCD
preference for POPG versus POPC vesicles [4]: 10 fold
